The labels stand for the following.
B1: HA-tagged wild-type human ZP1 [human] / MYC-tagged human wild-type ZP3 [human] (parent)
chain 1: RWLQPDPGLPGLRHSYDCGIKGMQLLVFPRPGQTLRFKVVDEFGNRFDVNNCSICYHWVTSRPQEPAVFSADYRGCHVLEKDGRFHLRVFMEAVLPNGRVDVAQDATLICPKPDPSRTLDSQLAPPAMFSVSTPQTLSFLPTSGHTSQGSGHAFPSPLDPGHSSVHPTPALPSPGPGPTLATLAQPHWGTLEHWDVNKRDYIGTHLSQEQCQVASGHLPCIVRRTSKEACQQAGCCYDNTREVPCYYGNTATVQCFRDGYFVLVVSQEMALTHRITLANIHLAYAPTSCSPTQHTEAFVVFYFPLTHCGTTMQVAGDQLIYENWLVSGIHIQKGPQGSITRDSTFQLHVRCVFNASDFLPIQASIFPPPSPAPMTQPGPLRLELRIAKDETFSSYYGEDDYPIVRLLREPVHVEVRLLQRTDPNLVLLLHQCWGAPSANPFQQPQWPILSDGCPFKGDSYRTQMVALDGATPFQSHYQRFTVATFALLDSGSQRALRGLVYLFCSTSACHTSGLETCSTACSTGTTRQ
chain 2: QPLWLLQGGASHPETSVQPVLVECQEATLMVMVSKDLFGTGKLIRAADLTLGPEACEPLVSMDTEDVVRFEVGLHECGNSMQVTDDALVYSTFLLHDPRPVGNLSIVRTNRAEIPIECRYPRQGNVSSQAILPTWLPFRTTVFSEEKLTFSLRLMEENWNAEKRSPTFHLGDAAHLQAEIHTGSHVPLRLFVDHCVATPTPDQNASPYHTIVDFHGCLVDGLTDASSAFKVPRPGPDTLQFTVDVFHFANDSRNMIYITCHLKVTLAEQDPDELNKACSFSKPSNSWFPVEGSADICQCCNKGDCGTPSHSRRQPHVMSQWSRSASRN
B2: MYC-tagged human wild-type ZP3 [human] / HA-tagged wild-type human ZP1 [human] (parent)
chain 1: B1 chain 2
chain 2: B1 chain 1

In one assay the parent is B1. In words: co-IP (IP: anti-HA, blot anti-MYC), densitometry. The note with it: with MYC-tagged human wild-type ZP3 [human]; HeLa cells; mutant lane co-transfected with HA-ZP1WT + HA-ZP1R109H + MYC-ZP3 (imitating heterozygous state); parent lane HA-ZP1WT + MYC-ZP3; parent: 1; read off a plot; scale: relative protein level.
As to chain 1 R84H, the response came out at 0.22.

Variants of B2 are the subject of the next assay. In words: co-IP (IP: MYC as labelled in the image, blot anti-HA), densitometry. The note with it: with HA-tagged wild-type human ZP1 [human]; HeLa cells; mutant lane co-transfected with MYC-ZP3WT + MYC-ZP3A134T + HA-ZP1 (imitating heterozygous state); parent lane MYC-ZP3WT + HA-ZP1; parent: 1; read off a plot; scale: relative protein level.
Turning to chain 1 A112T, the response is 0.87.

These data come from article PMC7412702.
